Data taken from paper PMC9500956, “In Vitro Characterization of the Physical Interactions between the Long Noncoding RNA TERRA and the Telomeric Proteins TRF1 and TRF2”.

What was measured:
Assay in all cases: EMSA; E. coli tRNA; RNA EMSA: 50 mM HEPES pH 8, 1 mM DTT, 100 mM NaCl, 0.01% BSA, 2% glycerol, 50 ng/uL E. coli tRNA, 0.25 nM RNA, 20 min on ice then 10 min 25 C; dsDNA EMSA: same
[1] = molecular target: GST-TRF1 (human, UniProt P54274 1-439); conditions: protein: recombinant, tags: N-terminal GST, chain copies: 2, label: 5'-32P
[2] = molecular target: T1, GST-B (hB) (human, UniProt Q15554 43-86); conditions: protein: recombinant, tags: N-terminal GST, label: 5'-32P
T1 chain: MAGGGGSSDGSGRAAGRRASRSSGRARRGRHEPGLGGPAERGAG

[3] = molecular target: GST-TRF2 (human, UniProt Q15554 43-542); conditions: protein: recombinant, tags: N-terminal GST, chain copies: 2, label: 5'-32P
[4] = molecular target: GST-hBL (human, UniProt Q15554 1-86); conditions: protein: recombinant; tags: N-terminal GST; label: 5'-32P; G4-forming
[5] = molecular target: T2, GST-A (hA) (human, UniProt P54274 1-66); conditions: protein: recombinant; tags: N-terminal GST; label: 5'-32P; G4-forming
T2 sequence: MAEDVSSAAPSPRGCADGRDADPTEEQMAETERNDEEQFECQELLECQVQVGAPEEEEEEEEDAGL

Binder: AAAGGGAAAGGGAAAGGGAAAGGGAAAGGG (structured_RNA) [MUT4 (AAAGGG)5]
- binding result ([1]; G4-forming): binds
- binding result ([2]; G4-forming): binds
- binding result ([3]; G4-forming): binds

Binder: UUACCGUUACCGUUACCGUUACCGUUACCG (ssRNA) [MUT2 (UUACCG)5]
- binding result ([1]; not G4-forming): no binding
- binding result ([2]; not G4-forming): no binding
- binding result ([3]; not G4-forming): no binding

Binder: AUAGGGAUAGGGAUAGGGAUAGGGAUAGGG (structured_RNA) [MUT3 (AUAGGG)5]
- binding result ([1]; G4-forming): binds
- binding result ([2]; G4-forming): binds
- binding result ([3]; G4-forming): binds

B1: TERRA (UUAGGG)12 (structured_RNA)
RNA: UUAGGGUUAGGGUUAGGGUUAGGGUUAGGGUUAGGGUUAGGGUUAGGGUUAGGGUUAGGGUUAGGGUUAGGG
- binding result [2]: binds

Binder: UUAGGGUUAGGGUUAGGGUUAGGGUUAGGG (structured_RNA) [TERRA (UUAGGG)5]
- binding result ([1]; G4-forming): binds
- binding result ([2]; G4-forming): binds
- binding result [4]: binds
- binding result [5]: no binding
- binding result ([3]; G4-forming): binds

Binder: UUACGGUUACGGUUACGGUUACGGUUACGG (ssRNA) [MUT1 (UUACGG)5]
- binding result ([1]; not G4-forming): no binding
- binding result ([2]; not G4-forming): no binding
- binding result ([3]; not G4-forming): no binding
